This is an account of results in PMC5222566, “The Ciliopathy-Associated Cep104 Protein Interacts with Tubulin and Nek1 Kinase” (Structure(London, England:1993), 2017).

The target of the assay is tubulin (Cytoskeleton) (UniProt P02550 1-451). In words: SEC-MALS; TOG protein mixed with reconstituted tubulin, each ~42 uM, 1:1; 25 mM Tris-HCl pH 7.5, 100 mM NaCl, 1 mM MgCl2, 1 mM EGTA. As to conditions: both partners purified.

B1: human Cep104 TOG domain (Cep104^367-685), wild type (domain or fragment, UniProt O60308 367-685, looked up)
chain: DPHPKINAESLPYDERPLPAIRKHYGEAVVEPEMSNADISDARRGGMLGEPEPLTEKALREASSAIDVLGETLVAEAYCKTWSYREDALLALSKKLMEMPVGTPKEDLKNTLRASVFLVRRAIKDIVTSVFQASLKLLKMIITQYIPKHKLSKLETAHCVERTIPVLLTRTGDSSARLRVTAANFIQEMALFKEVKSLQIIPSYLVQPLKANSSVHLAMSQMGLLARLLKDLGTGSSGFTIDNVMKFSVSALEHRVYEVRETAVRIILDMYRQHQASILEYLPPDDSNTRRNILYKTIFEGFAKIDGRATDAEMRARRK
notes: The crystallised TOG construct (392-676, PDB 5LPH) has other limits; also called WT TOG; source: E. coli Rosetta, purified (Ni-NTA, PreScission cleavage, HiTrap SP); not shown: His6, N-terminal, cleaved
B1: the stoichiometry N (as a rule, a count of units in the complex or per binding partner) is 1.
